In patent US12171803B2, “Methods of CD40 and toll like receptor immune activation” (MEMGEN, INC., priority 2017, dated 2024):

System: B16.F10 tumors
Test: Tumor growth of B16.F10 tumors subcutaneously implanted in mice
Assay type: in vivo
Settings: ISF35 combination therapy versus agonist CD40 antibody combination therapy; B16.F10 tumors subcutaneously implanted in C54/BL6 mice
From the text: Tumor growth curves of B16.F10 tumors subcutaneously implanted in C54/BL6 mice. Individual animal tumor growth curves are shown.

B1: ISF35: chimeric CD154 polypeptide; domain IV of human CD154 linked to domains I, II and III of human CD154; SEQ ID NO 6 (protein)
chain: MIETYNQTSPRSAATGLPISMKIFMYLLTVFLITQMIGSALFAVYLHRRLDKIEDERNLHEDFVFMKTIQRCNTGERSLSLLNCEEIKSQFEGFVKDIMLNKEETKKDEDPQIAAHVVSEANSNAASVLQWAKKGYYTMKSNLVTLENGKQLTVKRQGLYYIYAQVTFCSNREASSQAPFIVGLWLKPSSGSERILLKAANTHSSSQLCEQQSIHLGGVFELQPGASVFVNVTDPSQVSHGTGFTSFGLLKL
modifications: ISF35 (MEM40)
Tumor growth curves (activity of combination therapy): Superior activity
